Molecular target: Vh(DOM1h-10-27)-scArc-HA (Phage P22 / human Vh)
Test: DNA co-captured on protein A and human TNF receptor, not BSA
Details: tags: N-terminal Vh dAb fusion, C-terminal HA; chain copies: 2 scArc per operator (inferred)
Description: The functional activity of the V_H(DOM1h-10-27)-scArc fusion protein can be assessed by PCR amplification of the DNA co-captured during the V_H-dependent immunoprecipitation of the in vitro translation reaction product. As in the case of $V_\kappa$-scArc fusion constructs, 1 µl of 1.7 nM template in 0.2 mg/ml tRNA is added to 25 µl EcoPro T7 in vitro translation mix (Novagen), supplemented with 0.75 µl of 100 mM oxidized glutathione (Sigma), and incubated at 25° C. for four hours. During the translation reaction the streptavidin-coated PCR tubes, cut from Strep Thermofast 96-well plates (Abgene), are first incubated at room temperature for three hours with 50 µl of at least 40 nM biotinylated target protein in PBS. The coating buffer is thereafter removed and any remaining free biotin-binding sites are blocked with a 15 min pulse of 50 µg/ml biotinylated BSA in PBS. The precoated wells are thereafter three times washed with PBS and then filled with 100 µl of binding buffer C+ (100 mM KCl, 20 mM Tris, 5 mM MgCl_2, 0.05% Tween 20, 0.05 mM EDTA, 1% BSA). Upon completion of the translation reaction the products are diluted in Buffer C+ and applied to the pre-coated and blocked PCR tubes, allowed to bind for 30 min at room temperature and washed 4 times with 150 µl of Buffer C+. […]

B1: Arc operator, one copy, on linear genetic element (dsDNA)
DNA 1: ATGATAGAAGCACTCTACTAT
DNA 2: ATAGTAGAGTGCTTCTATCAT
  binding result: binds

Reference: patent US8084213, “Selection” (Domantis Limited)
